Test [1] addresses T1, amphyphisin SH3 (AMPH_HUMAN), P49418.
T1 chain: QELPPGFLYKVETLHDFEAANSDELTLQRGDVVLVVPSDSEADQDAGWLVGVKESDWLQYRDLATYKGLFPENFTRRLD
Kind of test: SPOT array.

Test [2] deals with endophilin SH3 (SH3G2_HUMAN), Q99962. In words: SPOT array.

As to QVKDIRRPERRHSD [Q9UI45 1886-1899], the results for the normalised SPOT signal, Boehringer light units (BLU); mean over the file's lines of this peptide in test [1] and in test [2] were 534 and 123, respectively.
In the same order, the values of QVILPPRPPKVLGL [P39188 470-484] are 936 and 5000.
Consider QSSPPQRPPAPASP [BAC05814 18-32], for which the normalised SPOT signal, Boehringer light units (BLU); mean over the file's lines of this peptide in test [1] amounted to 49.9; in test [2], 4000.
In the same order, the values of QQPPPRRPPQAPEG [Q9UPY6 301-315] are 744 and 430.
For QVIHPPRPPKVLGL [P39194 572-585] the same measures were 117 and 423.
For ATDLPKKPPPPEVT [Q96QH2 123-137] the same measures were 68.1 and 46.8.
For the molecule QVVGPHRPPALDDR [Q14097 329-343], the normalised SPOT signal, Boehringer light units (BLU); mean over the file's lines of this peptide in test [1] turned out to be 60.7; in test [2] it was 43.1.
In the same order, the values of QVDPPERPPSPPSD [Q9H4B3 193-207] are 92.2 and 326.
In the same order, the values of QVMVIKRPGRKRKA [P51608 244-257] are 1620 and 240.
Take QVIRPPRPPKVLGL [P39193 571-585]: the figures for the normalised SPOT signal, Boehringer light units (BLU); mean over the file's lines of this peptide in test [1] and in test [2] were 8910 and 14600, respectively.
In the same order, the values of QQPGPAKPPTQQVG [Q9Y6V0 366-380] are 62.4 and 30.3.
In the same order, the values of QQNLPKRPTSLPLN [Q13873 748-761] are 47.8 and 520.
Take QRQRPPRPPPRGTP [Q8WTU5 20-34]: the normalised SPOT signal, Boehringer light units (BLU); mean over the file's lines of this peptide came to 8800 in test [1] and 11000 in test [2].
For QVEKLRRPEGASNE [O75381 360-373] the same measures were 40.3 and 64.7.
For QQPLPRRPGHDDGQ [Q16360 104-117] the same measures were 36.8 and 106.
In the same order, the values of QSTNPKRPLSSANQ [P35670 228-241] are 35.1 and 94.2.
For the molecule QSISLRRPRLASQS [Q9UBH6 665-678], the normalised SPOT signal, Boehringer light units (BLU); mean over the file's lines of this peptide in test [1] worked out at 56.1; in test [2], 208.
In the same order, the values of QVFLPPRPPKVLGL [Q9Y3F0 251-265] are 1150 and 2710.
Consider QVNHLKRPVSGVGD [Q92610 1091-1104], for which the normalised SPOT signal, Boehringer light units (BLU); mean over the file's lines of this peptide in test [1] turned out to be 42.5; in test [2] it was 0.
On to QRSHFKRPRELEDA [P33897 430-443], for which the normalised SPOT signal, Boehringer light units (BLU); mean over the file's lines of this peptide in test [1] was found to be 64.1; in test [2], 29.5.
Regarding QSLKIRRPHDYQPL [P26368 222-235], the normalised SPOT signal, Boehringer light units (BLU); mean over the file's lines of this peptide is 37.5 in test [1] and 93.1 in test [2].
In the same order, the values of QQQLLQRPPRDAQQ [O15350 392-405] are 3270 and 106.
Turning to ATDAPSRPGRLAGR [Q9H6H6 405-418], the results for the normalised SPOT signal, Boehringer light units (BLU); mean over the file's lines of this peptide in test [1] and in test [2] were 5530 and 147, respectively.
For ATDSPRRPSRSTGG [Q9H6U6 6-19] the same measures were 11300 and 472.
For QVDPPERPPPPPSD [Q9H292 194-208] the same measures were 43.2 and 275.
For QRKNLRRPPSIKGW [Q9NYL5 22-35] the same measures were 25.3 and 57.6.
Regarding QQKPPKRPPIEASV [Q9BZS0 76-90], the normalised SPOT signal, Boehringer light units (BLU); mean over the file's lines of this peptide in test [1] was 57.3; in test [2], 822.
Turning to QVIGPHRPPELHDR [P20813 329-343], the normalised SPOT signal, Boehringer light units (BLU); mean over the file's lines of this peptide in test [1] is 66.4; in test [2], 82.5.

These data come from paper PMC314469, “Protein Interaction Networks by Proteome Peptide Scanning” (PLoS Biology, 2004).
